US11549123B2, “Plant EPSP synthases and methods of use” (PIONEER HI-BRED INTERNATIONAL, INC., priority 2015, dated 2023)
Residue numbers refer to the chain shown, from its start. Numbers in names are those of the source.

Assays:
[1] = tested on: C=C(OP(=O)(O)O)C(=O)O; assay: purified protein, by the assay type; conditions: other: substrate saturation; Bacterial EPSPS / CP4
Text: There are several practical considerations for accurately estimating (kcat/KM)*KI with the rapid method. […] If inhibition is too little, v0-vi will be small, and the error in the multiplier vi×v0/(v0-vi) will be large. […] High substrate concentration obscures sensitivity to the inhibitor and reduces stringency for capturing improvements in KM.

[2] = substrate: C=C(OP(=O)(O)O)C(=O)O; assay: Substrate saturation analysis with glyphosate (Example 8), Zm-H6; format: biochemical, Zea mays; conditions: other: substrate saturation, pH 7.0
Text: Generally, (kcat/KM)*KI is obtained by performing substrate saturation analysis in the absence and presence of inhibitor. However, that analysis takes longer. […] To validate the method, (kcat/KM)*KI was quantified using both methods—traditional (saturation) and the instant method (rapid), for variants of maize 5-enolpyruvylshikimate-3-phosphate synthase (EPSPS) and its competitive inhibitor, glyphosate.
The amino acid sequence of mature Zea mays EPSPS was obtained from GenBank entry CAA44974.1 (SEQ ID NO:2). A nucleotide sequence was created to add an N-terminal methionine and to optimize codon usage for expression in E. coli. The synthesized gene was cloned into an expression vector that provides a T7 promoter driving expression of the protein and a 10× N-terminal histidine tag. Variants selected for this study include native maize EPSPS and variants generated by a gene shuffling cascade described herein. […] Protein concentration was determined by absorbance at 280 nm using an extinction coefficient of 0.676 OD/mg/m L. The proteins were normalized to 0.5 mg/mL for assay.
EPSPS activity was determined by quantifying the phosphate generated by the reaction. […] The absorbance change that occurs was monitored continuously at 360 nm, where the extinction is 11,200 M-1 cm-1, with a Spectramax plate reader (Molecular Devices). […]

[3] = substrate: C=C(OP(=O)(O)O)C(=O)O; assay: Substrate saturation kinetic analysis with glyphosate, H6-A69V; format: biochemical, Zea mays; conditions: other: substrate saturation
[4] = substrate: C=C(OP(=O)(O)O)C(=O)O; assay: Substrate saturation kinetic analysis with glyphosate, H6-K246G; format: biochemical, Zea mays; conditions: other: substrate saturation
[5] = substrate: C=C(OP(=O)(O)O)C(=O)O; assay: Substrate saturation kinetic analysis with glyphosate, H6-D196V; format: biochemical, Zea mays; conditions: other: substrate saturation
[6] = substrate: C=C(OP(=O)(O)O)C(=O)O; assay: Substrate saturation kinetic analysis with glyphosate, H6-R61Y; format: biochemical, Zea mays; conditions: other: substrate saturation
[7] = substrate: C=C(OP(=O)(O)O)C(=O)O; assay: Substrate saturation kinetic analysis with glyphosate, H6-A36G; format: biochemical, Zea mays; conditions: other: substrate saturation
[8] = substrate: C=C(OP(=O)(O)O)C(=O)O; assay: Substrate saturation kinetic analysis with glyphosate, H6-A76V; format: biochemical, Zea mays; conditions: other: substrate saturation
[9] = substrate: C=C(OP(=O)(O)O)C(=O)O; assay: Substrate saturation kinetic analysis with glyphosate, H6-V87T; format: biochemical, Zea mays; conditions: other: substrate saturation
[10] = substrate: C=C(OP(=O)(O)O)C(=O)O; assay: Substrate saturation kinetic analysis with glyphosate, H6-H54E; format: biochemical, Zea mays; conditions: other: substrate saturation
[11] = substrate: C=C(OP(=O)(O)O)C(=O)O; assay: Substrate saturation kinetic analysis with glyphosate, Zm-A189T; format: biochemical, Zea mays; conditions: other: substrate saturation
[12] = substrate: C=C(OP(=O)(O)O)C(=O)O; assay: Substrate saturation kinetic analysis with glyphosate, Zm-P107S; format: biochemical, Zea mays; conditions: other: substrate saturation
[13] = substrate: C=C(OP(=O)(O)O)C(=O)O; assay: Substrate saturation kinetic analysis with glyphosate, Zm-T103I; format: biochemical, Zea mays; conditions: other: substrate saturation
[14] = tested on: maize EPSPS; assay: EPSPS reaction rates at 200 uM PEP and S3P, and at 30 uM substrates with 1 mM glyphosate; format: biochemical, Zea mays; conditions: Zea ma
Experimental: EPSPS activity was determined by quantifying the phosphate generated from the EPSPS reaction. Release of inorganic phosphate was coupled to reaction with 2-amino-6-mercapto-7-methylpurine ribonucleoside, catalyzed by purine-nucleoside phosphorylase (M R Webb, Proc. Natl. Acad. Sci. 89:4884-4887, 1992). The absorbance change that occurs was monitored at 360 nm, where the extinction is 11,200 M^−1 cm^−1, with a Spectramax plate reader (Molecular Devices). To determine kinetic parameters, the varied substrate was present at seven concentrations (the eighth being the blank, containing no substrate) ranging from 4 to 400 uM and the unvaried substrate present at saturation. […] Reactions were monitored with a Spectramax plate reader. […] KI was then calculated from the following form of the Michaelis-Menten equation for competitive inhibition: KI=KM[I]/(KM app−KM) KM approximates the dissociation constant of the enzyme-substrate complex while kcat is the rate of conversion of substrate to product when the substrate concentration is saturating. kcat/KM is a widely accepted parameter for catalytic efficiency when substrate concentration is low (˜KM). […] The parameter kcat/KM×KI is used to quantify both catalytic efficiency and insensitivity and thus the overall fitness of the enzyme. […]

[15] = tested on: Glycine max (93Y21) hairy root; assay: Hairy root growth from transformed soybean cotyledons with or without 25 uM glyphosate; format: cell-based; conditions: constructs containing the UBQ10 promoter

Molecule “Bacterial EPSPS (CP4) (Agrobacterium sp. CP4)” has a Km [1] of 15.8 µM and a kcat [1] of 20.32 s⁻¹.

B1: Zea mays EPSPS variant Zm-H6 (868-H6) (Zea mays; A1R/A3W/A415G/A71Q/D401G/E301S/E390G/G101A/I207L/K83R/L97C/T278A/T360S/T440Q/V437R) (protein)
chain: MRGWEEIVLQPIKEISGTVKLPGSKSLSNRILLLAALSEGTTVVDNLLNSEDVHYMLGALRTLGLSVEADKQAKRAVVVGCGGRFPVEDAKEEVQLFCGNAATAMRPLTAAVTAAGGNATYVLDGVPRMRERPIGDLVVGLKQLGADVDCFLGTDCPPVRVNGIGGLPGGKVKLSGSISSQYLSALLMAAPLALGDVEIEIIDKLISLPYVEMTLRLMERFGVKAEHSDSWDRFYIKGGQKYKSPKNAYVEGDASSASYFLAGAAITGGTVTVEGCGTASLQGDVKFAEVLEMMGAKVTWTSTSVTVTGPPREPFGRKHLKAIDVNMNKMPDVAMTLAVVALFADGPTAIRDVASWRVKESERMVAIRTELTKLGASVEEGPDYCIITPPGKLNVTAIDTYGDHRMAMAFSLAACGEVPVTIRDPGCTRKTFPDYFDRLSQFVKN
For B1, the Km [2] was 20.6 µM and the kcat [2] was 3.3 s⁻¹.

B2: Zea mays EPSPS variant Zm-H6 (868-H6) with A69V (H6-A69V) (Zea mays; A1R/A3W/A415G/A68V/A71Q/D401G/E301S/E390G/G101A/I207L/K83R/L97C/T278A/T360S/T440Q/V437R) (protein)
chain: B1 chain with A69V
Work on B2 yielded a Km [3] of 21.1 µM and a kcat [3] of 2.68 s⁻¹.

B3: Zea mays EPSPS variant Zm-H6 (868-H6) with K246G (H6-K246G) (Zea mays; A1R/A3W/A415G/A71Q/D401G/E301S/E390G/G101A/I207L/K245G/K83R/L97C/T278A/T360S/T440Q/V437R) (protein)
chain: B1 chain with K246G
notes: 868-H6 plus K246G; E. coli BL21(DE3), Ni-NTA purified
In the case of B3, the Km [4] is reported as 24.0 µM and the kcat [4] is reported as 3.5 s⁻¹.

B4: Zea mays EPSPS variant Zm-H6 (868-H6) with D196V (H6-D196V) (Zea mays; A1R/A3W/A415G/A71Q/D195V/D401G/E301S/E390G/G101A/I207L/K83R/L97C/T278A/T360S/T440Q/V437R) (protein)
chain: B1 chain with D196V
notes: shuffled variant 868-H6 plus D196V; E. coli BL21(DE3), Ni-NTA purified
With B4 the Km [5] was 61.8 µM and the kcat [5] was 2.73 s⁻¹.

B5: Zea mays EPSPS variant Zm-H6 (868-H6) with R61Y (H6-R61Y) (Zea mays; A1R/A3W/A415G/A71Q/D401G/E301S/E390G/G101A/I207L/K83R/L97C/R60Y/T278A/T360S/T440Q/V437R) (protein)
chain: B1 chain with R61Y
notes: 868-H6 plus R61Y; E. coli BL21(DE3), Ni-NTA purified
Molecule B5 has a Km [6] of 23.6 µM and a kcat [6] of 2.08 s⁻¹.

B6: Zea mays EPSPS variant Zm-H6 (868-H6) with A36G (H6-A36G) (Zea mays; A1R/A35G/A3W/A415G/A71Q/D401G/E301S/E390G/G101A/I207L/K83R/L97C/T278A/T360S/T440Q/V437R) (protein)
chain: B1 chain with A36G
B6 was tested, and the Km [7] was 30.8 µM and the kcat [7] was 4.1 s⁻¹.

B7: Zea mays EPSPS variant Zm-H6 (868-H6) with A76V (H6-A76V) (Zea mays; A1R/A3W/A415G/A71Q/A75V/D401G/E301S/E390G/G101A/I207L/K83R/L97C/T278A/T360S/T440Q/V437R) (protein)
chain: B1 chain with A76V
B7 gave a Km [8] of 45.2 µM and a kcat [8] of 3.48 s⁻¹.

B8: Zea mays EPSPS variant Zm-H6 (868-H6) with V87T (H6-V87T) (Zea mays; A1R/A3W/A415G/A71Q/D401G/E301S/E390G/G101A/I207L/K83R/L97C/T278A/T360S/T440Q/V437R/V86T) (protein)
chain: B1 chain with V87T
notes: 868-H6 plus V87T; E. coli BL21(DE3), Ni-NTA purified
B8 showed a Km [9] of 27.5 µM and a kcat [9] of 4.32 s⁻¹.

B9: Zea mays EPSPS variant Zm-H6 (868-H6) with H54E (H6-H54E) (Zea mays; A1R/A3W/A415G/A71Q/D401G/E301S/E390G/G101A/H53E/I207L/K83R/L97C/T278A/T360S/T440Q/V437R) (protein)
chain: B1 chain with H54E
notes: 868-H6 plus H54E; E. coli BL21(DE3), Ni-NTA purified
B9 was tested, and the Km [10] was 27.9 µM and the kcat [10] was 4.13 s⁻¹.

B10: Zea mays EPSPS variant Zm-A189T (Zea mays; A188T) (protein)
chain: MAGAEEIVLQPIKEISGTVKLPGSKSLSNRILLLAALSEGTTVVDNLLNSEDVHYMLGALRTLGLSVEADKAAKRAVVVGCGGKFPVEDAKEEVQLFLGNAGTAMRPLTAAVTAAGGNATYVLDGVPRMRERPIGDLVVGLKQLGADVDCFLGTDCPPVRVNGIGGLPGGKVKLSGSISSQYLSALLMTAPLALGDVEIEIIDKLISIPYVEMTLRLMERFGVKAEHSDSWDRFYIKGGQKYKSPKNAYVEGDASSASYFLAGAAITGGTVTVEGCGTTSLQGDVKFAEVLEMMGAKVTWTETSVTVTGPPREPFGRKHLKAIDVNMNKMPDVAMTLAVVALFADGPTAIRDVASWRVKETERMVAIRTELTKLGASVEEGPDYCIITPPEKLNVTAIDTYDDHRMAMAFSLAACAEVPVTIRDPGCTRKTFPDYFDVLSTFVKN
Molecule B10 has a Km [11] of 307 µM and a kcat [11] of 4.3 s⁻¹.

B11: Zea mays EPSPS variant Zm-P107S (Zea mays; P106S) (protein)
chain: B10 chain with P107S, T189A
notes: native maize plus P107S; E. coli BL21(DE3), Ni-NTA purified
For B11, the Km [12] was 14.8 µM and the kcat [12] was 29.97 s⁻¹.

B12: Zea mays EPSPS variant Zm-T103I (Zea mays; T102I) (protein)
chain: B10 chain with T103I, T189A
notes: native maize plus T103I; E. coli BL21(DE3), Ni-NTA purified
For B12, the Km [13] was 171 µM and the kcat [13] was 5.33 s⁻¹.

B13: 123-C1: maize EPSPS with A2R, A4W, K84R, L98C, G102A, I208L, K243E, E391P, D402G (protein)
chain: B1 chain with Q72A, K243E, A279T, S302E, S361T, G391P, G416A, R438V, Q441T
modifications: maize clone 123-C1
notes: maize EPSPS with A2R, A4W, K84R, L98C, G102A, I208L, K243E, E391P, D402G
For B13, the “Reaction rate, 200 uM, no glyph” value ([14]; PEP and S3P both at 200 uM, no glyphosate) was 516, the “Reaction rate, 30 uM, 1 mM glyph” value ([14]; substrates at 30 uM, glyphosate at 1 mM) was 94.5 and the “hairy root growth in the presence of 25 uM glyphosate” value [15] was “generated hairy roots”.
